The Km is the concentration of substrate that gives half-maximal velocity. By kcat is commonly meant the maximal rate divided by the concentration of active sites. The term kcat/Km denotes the second-order rate constant that governs catalysis at low substrate concentration.

Residue numbers refer to the chain shown, from its start. In names and notes the source's numbering stands.

What all share (assay): purified protein
Data set [1] has as its system CC(C)(COP(=O)(O)OP(=O)(O)OC[C@H]1O[C@@H](n2cnc3c(N)ncnc32)[C@H](O)[C@@H]1OP(=O)(O)O)[C@@H](O)C(=O)NCCC(=O)NCCSC(=O)c1cc(O)c2ccccc2c1O. As to conditions: 50 mM K+HEPES pH 7.5, 1 mM DTNB, 25 °C.
For data set [2], the system named is CC(C)(COP(=O)(O)OP(=O)(O)OC[C@H]1O[C@@H](n2cnc3c(N)ncnc32)[C@H](O)[C@@H]1OP(=O)(O)O)[C@@H](O)C(=O)NCCC(=O)NCCSC(=O)c1ccccc1. As to conditions: 50 mM K+HEPES pH 7.5, 1 mM DTNB, 25 °C.
Data set [3] concerns CCCCCCCCCCCC(=O)SCCNC(=O)CCNC(=O)[C@H](O)C(C)(C)COP(=O)(O)OP(=O)(O)OC[C@H]1O[C@@H](n2cnc3c(N)ncnc32)[C@H](O)[C@@H]1OP(=O)(O)O. The following applies: 50 mM K+HEPES pH 7.5, 1 mM DTNB, 25 °C.
Substrate in data set [4]: CC(C(=O)O)C(=O)SCCNC(=O)CCNC(=O)[C@H](O)C(C)(C)COP(=O)(O)OP(=O)(O)OC[C@H]1O[C@@H](n2cnc3c(N)ncnc32)[C@H](O)[C@@H]1OP(=O)(O)O
As to conditions: 50 mM K+HEPES pH 7.5, 1 mM DTNB, 25 °C.

Substrate in data set [5]: CCCCCCCCCCCC(=O)SCCNC(=O)CCNC(=O)[C@H](O)C(C)(C)COP(=O)(O)OP(=O)(O)OC[C@H]1O[C@@H](n2cnc3c(N)ncnc32)[C@H](O)[C@@H]1OP(=O)(O)O
As to conditions: 50 mM K+HEPES pH 7.5, 1 mM DTNB, 25 °C. The source holds these as a separate data set.

Substrate in data set [6]: CC(C)=CC(=O)SCCNC(=O)CCNC(=O)[C@H](O)C(C)(C)COP(=O)(O)OP(=O)(O)OC[C@H]1O[C@@H](n2cnc3c(N)ncnc32)[C@H](O)[C@@H]1OP(=O)(O)O
The following applies: 50 mM K+HEPES pH 7.5, 1 mM DTNB, 25 °C.

Substrate in data set [7]: CC(C)(COP(=O)(O)OP(=O)(O)OC[C@H]1O[C@@H](n2cnc3c(N)ncnc32)[C@H](O)[C@@H]1OP(=O)(O)O)[C@@H](O)C(=O)NCCC(=O)NCCSC(=O)/C=C/c1ccc(O)cc1
The following applies: 50 mM K+HEPES pH 7.5, 1 mM DTNB, 25 °C.

Substrate in data set [8]: CCCCCCCCCCCCCC(=O)SCCNC(=O)CCNC(=O)[C@H](O)C(C)(C)COP(=O)(O)OP(=O)(O)OC[C@H]1O[C@@H](n2cnc3c(N)ncnc32)[C@H](O)[C@@H]1OP(=O)(O)O
As to conditions: 50 mM K+HEPES pH 7.5, 1 mM DTNB, 25 °C.

Substrate in data set [9]: CCC(=O)SCCNC(=O)CCNC(=O)[C@H](O)C(C)(C)COP(=O)(O)OP(=O)(O)OC[C@H]1O[C@@H](n2cnc3c(N)ncnc32)[C@H](O)[C@@H]1OP(=O)(O)O
As to conditions: 50 mM K+HEPES pH 7.5, 1 mM DTNB, 25 °C.

Substrate in data set [10]: CCCCCCCC/C=C\CCCCCCCC(=O)SCCNC(=O)CCNC(=O)[C@H](O)C(C)(C)COP(=O)(O)OP(=O)(O)OC[C@H]1O[C@@H](n2cnc3c(N)ncnc32)[C@H](O)[C@@H]1OP(=O)(O)O
As to conditions: 50 mM K+HEPES pH 7.5, 1 mM DTNB, 25 °C.

Substrate in data set [11]: CCCCCC(=O)SCCNC(=O)CCNC(=O)[C@H](O)C(C)(C)COP(=O)(O)OP(=O)(O)OC[C@H]1O[C@@H](n2cnc3c(N)ncnc32)[C@H](O)[C@@H]1OP(=O)(O)O
The following applies: 50 mM K+HEPES pH 7.5, 1 mM DTNB, 25 °C.

Substrate in data set [12]: CCCCCCCCCCCCCCCC(=O)SCCNC(=O)CCNC(=O)[C@H](O)C(C)(C)COP(=O)(O)OP(=O)(O)OC[C@H]1O[C@@H](n2cnc3c(N)ncnc32)[C@H](O)[C@@H]1OP(=O)(O)O
The following applies: 50 mM K+HEPES pH 7.5, 1 mM DTNB, 25 °C.

Substrate in data set [13]: CC(C)(COP(=O)(O)OP(=O)(O)OC[C@H]1O[C@@H](n2cnc3c(N)ncnc32)[C@H](O)[C@@H]1OP(=O)(O)O)[C@@H](O)C(=O)NCCC(=O)NCCSC(=O)c1cc(O)c2ccccc2c1O
As to conditions: 50 mM K+HEPES pH 7.5, 1 mM DTNB, 25 °C. The source holds these as a separate data set.

Substrate in data set [14]: CC(C)(COP(=O)(O)OP(=O)(O)OC[C@H]1O[C@@H](n2cnc3c(N)ncnc32)[C@H](O)[C@@H]1OP(=O)(O)O)[C@@H](O)C(=O)NCCC(=O)NCCSC(=O)c1ccc(O)cc1
The following applies: 50 mM K+HEPES pH 7.5, 25 °C.

Substrate in data set [15]: CC(C)(COP(=O)(O)OP(=O)(O)OC[C@H]1O[C@@H](n2cnc3c(N)ncnc32)[C@H](O)[C@@H]1OP(=O)(O)O)[C@@H](O)C(=O)NCCC(=O)NCCSC(=O)c1ccccc1
The following applies: 50 mM K+HEPES pH 7.5, 1 mM DTNB, 25 °C. This is another data set of the same source.

Substrate in data set [16]: CCCCCCCCCCCC(=O)SCCNC(=O)CCNC(=O)[C@H](O)C(C)(C)COP(=O)(O)OP(=O)(O)OC[C@H]1O[C@@H](n2cnc3c(N)ncnc32)[C@H](O)[C@@H]1OP(=O)(O)O
Type of data set: biochemical, Escherichia coli. The following applies: 50 mM K+HEPES pH 7.5, 1 mM DTNB, 25 °C.

As for YbdB (Escherichia coli K-12; M68V), the Km turned out to be 5.9 ± 0.6 µM in [1], 24 ± 2 µM in data set [2] and 10.4 ± 0.3 µM in data set [3]. Moreover, the kcat in data set [1] was 0.16 ± 0.02 s⁻¹; in data set [2], 1.8 ± 0.1 s⁻¹; in data set [3], 0.046 ± 0.004 s⁻¹. For the same molecule, the kcat/Km in data set [1] was found to be 27000 M⁻¹ s⁻¹; in [2], 75000 M⁻¹ s⁻¹; in [3], 4500 M⁻¹ s⁻¹.

B1: YdiI (Escherichia coli K-12) (protein)
chain: MIWKRKITLEALNAMGEGNMVGFLDIRFEHIGDDTLEATMPVDSRTKQPFGLLHGGASVVLAESIGSVAGYLCTEGEQKVVGLEINANHVRSAREGRVRGVCKPLHLGSRHQVWQIEIFDEKGRLCCSSRLTTAIL
In the case of B1, the Km in the data set “purified protein [4]” turned out to be 115 ± 7 µM; in the data set “purified protein [5]”, 2.2 ± 0.1 µM; in the data set “purified protein [6]”, 69.4 ± 0.4 µM; in the data set “purified protein [7]” it was 30 ± 2 µM; in the data set “purified protein [8]”, 1.5 ± 0.2 µM; in “purified protein [9]”, 120 ± 10 µM. For the same molecule, the Km in “purified protein [10]” came out at 1.3 ± 0.1 µM; in “purified protein [11]”, 21 ± 1 µM; in the data set “purified protein [12]” it was 1.9 ± 0.1 µM; in the data set “purified protein [13]” it was 8 ± 1 µM; in “purified protein [14]”, 9 ± 1 µM; in the data set “purified protein [15]”, 25 ± 3 µM. Besides, the kcat came out at 0.67 ± 0.03 s⁻¹ in “purified protein [4]”; 0.74 ± 0.01 s⁻¹ in “purified protein [5]”; 0.5 ± 0.02 s⁻¹ in the data set “purified protein [6]”; 8.4 ± 0.2 s⁻¹ in the data set “purified protein [7]”; 0.62 ± 0.01 s⁻¹ in the data set “purified protein [8]”; 0.21 ± 0.01 s⁻¹ in the data set “purified protein [9]”. Further, the kcat in “purified protein [10]” came to 0.12 ± 0.01 s⁻¹; in the data set “purified protein [11]” it was 0.3 ± 0.01 s⁻¹; in “purified protein [12]”, 0.58 ± 0.01 s⁻¹; in “purified protein [13]” it was 1.6 ± 0.1 s⁻¹; in the data set “purified protein [14]”, 5.2 ± 0.2 s⁻¹; in “purified protein [15]” it was 17.7 ± 0.7 s⁻¹. Further, the kcat/Km in the data set “purified protein [4]” was found to be 5800 M⁻¹ s⁻¹; in the data set “purified protein [5]”, 330000 M⁻¹ s⁻¹; in the data set “purified protein [6]”, 7300 M⁻¹ s⁻¹; in the data set “purified protein [7]” it was 280000 M⁻¹ s⁻¹; in the data set “purified protein [8]”, 410000 M⁻¹ s⁻¹; in the data set “purified protein [9]” it was 1700 M⁻¹ s⁻¹. The kcat/Km stood at 92000 M⁻¹ s⁻¹ in “purified protein [10]”; 14000 M⁻¹ s⁻¹ in “purified protein [11]”; 300000 M⁻¹ s⁻¹ in “purified protein [12]”; 200000 M⁻¹ s⁻¹ in the data set “purified protein [13]”; 580000 M⁻¹ s⁻¹ in “purified protein [14]”; 710000 M⁻¹ s⁻¹ in “purified protein [15]”.

B2: YdiI (Escherichia coli K-12; V68M) (protein)
chain: B1 chain with V68M
For the molecule B2, in “purified protein [16]”, the Km was found to be 28 ± 2 µM, the catalytic constant (kcat) was found to be 0.77 ± 0.03 s⁻¹ and the kcat/Km came out at 28000 M⁻¹ s⁻¹.

B3: YbdB (Escherichia coli K-12) (protein)
chain: MIWKRHLTLDELNATSDNTMVAHLGIVYTRLGDDVLEAEMPVDTRTHQPFGLLHGGASAALAETLGSMAGFMMTRDGQCVVGTELNATHHRPVSEGKVRGVCQPLHLGRQNQSWEIVVFDEQGRRCCTCRLGTAVLG
As to B3, the Km in the data set “purified protein [7]” was found to be 10 ± 1 µM; in the data set “purified protein [8]”, 11 ± 1 µM; in “purified protein [10]”, 13 ± 2 µM; in the data set “purified protein [13]” it was 17 ± 1 µM. Moreover, the kcat in the data set “purified protein [7]” came to 0.82 ± 0.02 s⁻¹; in “purified protein [8]”, 0.078 ± 0.003 s⁻¹; in “purified protein [10]”, 0.03 ± 0.002 s⁻¹; in “purified protein [13]” it was 0.0093 ± 0.0002 s⁻¹. Also, the kcat/Km came out at 82000 M⁻¹ s⁻¹ in “purified protein [7]”, 7100 M⁻¹ s⁻¹ in “purified protein [8]”, 2300 M⁻¹ s⁻¹ in the data set “purified protein [10]” and 550 M⁻¹ s⁻¹ in “purified protein [13]”.
